Experimental data from publication doi:10.1101/2025.09.11.675134, “Biodistribution-Driven Discovery Identifies a Glycosidase-Cleavable Linker to Reprogram Radiotheranostics” (bioRxiv, 2025).
Where two headings read alike, the source gives them in different places.

Tests used:
[1] = PET/CT quantification of 86Y-labeled variants in AR42J xenograft mice; assay type: in vivo; conditions: athymic nude, mouse, in vivo, iv, total radioactivity
Protocol: For studies involving three variants (DOTA -TATE, DOTA-MVK(ε)-TATE, and DOTA-β-Gal-TATE), AR42J cells (5 × 10^6 cells per mouse) were subcutaneously inoculated into the right shoulder of the mice. Tumors were allowed to grow for 3 weeks, reaching a volume of 100 –200 mm³ before being used in subsequent experiments. For biodistribution or PET imaging studies, mice bearing subcutaneous AR42J tumors were administered 1.4 – 1.8 MBq (1 μg) of 111In-labeled DOTA-TATE variants or 2.7 – 4.9 MBq (1 μg) of 86Y-labeled DOTA-TATE variants via […]
tail vein injection. […]
PET imaging to assess the uptake of three 86Y-labeled DOTA-TATE variants (2.7 – 4.9 MBq, 1 μg) in the kidney and tumor was performed at 1, 4, and 24 hours post-injection (n = 3 per cohort) in mice bearing AR42J tumors using the MRS*PET/CT 120 scanner (MR Solutions, Guildford, UK). PET/CT data acquisition was managed using Preclinical Scan software (version 4.2.4.0, MR Solutions). Mice were anesthetized with 2% isoflurane, and static PET sc ans were acquired over 10 min. CT scans were obtained for attenuation correction and anatomical co-registration.
PET data were reconstructed using three-dimensional ordered-subsets expectation maximization, and were subsequently normalized, decay - and dead-time–corrected prior to analysis. PET/CT images were analyzed using MIM software (version 7.2.7, MIM Software Inc., Beachwood, OH, USA), and the quantitative evaluation of the maximum standardized uptake (SUVmax) and the average standardized uptake values (SUVmean) in the kidney and tumor were also performed. […]

[2] = Ex vivo biodistribution of 86Y-labeled variants in AR42J tumor-bearing mice; conditions: athymic nude, mouse, iv, 1 ug, total radioactivity, mean; for tissue uptake at 1 h: 1 h post-injection; for tissue uptake at 4 h: 4 h post-injection; for tissue uptake at 24 h: 24 h post-injection
Protocol: To independently confirm these observations, ex vivo biodistribution studies were conducted using the same ^86Y-labeled compounds at matched timepoints (Fig. S16; Table S3). […]
For studies involving three variants (DOTA -TATE, DOTA-MVK(ε)-TATE, and DOTA-β-Gal-TATE), AR42J cells (5 × 10^6 cells per mouse) were subcutaneously inoculated into the right shoulder of the mice. Tumors were allowed to grow for 3 weeks, reaching a volume of 100 –200 mm³ before being used in subsequent experiments. For biodistribution or PET imaging studies, mice bearing subcutaneous AR42J tumors were administered 1.4 – 1.8 MBq (1 μg) of 111In-labeled DOTA-TATE variants or 2.7 – 4.9 MBq (1 μg) of 86Y-labeled DOTA-TATE variants via tail vein injection. Biodistribution studies with 111In-labeled DOTA -TATE variants were performed 1 hour post -injection (n = 3 per cohort), while studies with 86Y-labeled DOTA-TATE variants were conducted at 1, 4, and 24 hours post -injection (n = 3 per cohort). Mice were euthanized by CO2 asphyxiation, and 10 tissues, including tumors, were collected. All samples were weighed and counted on a gamma counter (2480 Wizard 3, Perkin Elmer Inc., Waltham, MA, USA). Results are presented as percentage of injected activity per gram (%IA/g) and mean values ± standard deviations. […]

[3] = blood, ex vivo, n = 3, read-out: Blood uptake
[4] = femur, ex vivo, n = 3, read-out: Femur uptake
[5] = heart, ex vivo, n = 3, read-out: Heart uptake
[6] = intestine, ex vivo, n = 3, read-out: Intestine uptake
[7] = ex vivo, n = 3, read-out: Tumor uptake
[8] = kidney, ex vivo, n = 3, read-out: Kidney uptake
[9] = liver, ex vivo, n = 3, read-out: Liver uptake
[10] = lung, ex vivo, n = 3, read-out: Lung uptake
[11] = muscle, ex vivo, n = 3, read-out: Muscle uptake
[12] = spleen, ex vivo, n = 3, read-out: Spleen uptake

CSCC[C@H](NC(=O)CN1CCN(CC(=O)O)CCN(CC(=O)O)CCN(CC(=O)O)CC1)C(=O)N[C@H](C(=O)N[C@@H](CCCCNC(=O)CCCC(=O)N[C@H](Cc1ccccc1)C(=O)N[C@H]1CSSC[C@@H](C(=O)N[C@H](C(=O)O)[C@@H](C)O)NC(=O)[C@H]([C@@H](C)O)NC(=O)[C@H](CCCCN)NC(=O)[C@@H](Cc2c[nH]c3ccccc23)NC(=O)[C@H](Cc2ccc(O)cc2)NC1=O)C(=O)O)C(C)C [^86Y-DOTA-MVK(ε)-TATE, metal not drawn]
SUV at 4 h ([1]; Kidney SUVmax): 0.42 ± 0.07 SUV | SUV at 24 h ([1]; Kidney SUVmax): 0.21 ± 0.01 SUV | SUV at 1 h ([1]; Tumor SUVmax): 1.31 ± 0.06 SUV | SUV at 4 h ([1]; Tumor SUVmax): 1.06 ± 0.14 SUV | SUV at 24 h ([1]; Tumor SUVmax): 1.04 ± 0.13 SUV | tissue uptake at 1 h ([2]; blood, i.v. 1 μg (2.7–4.9 MBq), ex vivo gamma counting, n = 3, read-out: Blood uptake): 0.32 %ID/g | tissue uptake at 4 h [2, 3]: 0.17 %ID/g | tissue uptake at 24 h [2, 3]: 0.02 %ID/g | tissue uptake at 1 h [2, 4]: 0.52 %ID/g | tissue uptake at 4 h [2, 4]: 0.21 %ID/g | tissue uptake at 24 h [2, 4]: 0.2 %ID/g | tissue uptake at 1 h [2, 5]: 0.35 %ID/g | tissue uptake at 4 h [2, 5]: 0.24 %ID/g | tissue uptake at 24 h [2, 5]: 0.08 %ID/g | tissue uptake at 1 h [2, 6]: 0.69 %ID/g | tissue uptake at 4 h [2, 6]: 0.46 %ID/g | tissue uptake at 24 h [2, 6]: 0.05 %ID/g | tissue uptake at 1 h [2, 7]: 5.02 %ID/g | tissue uptake at 4 h [2, 7]: 5.08 %ID/g | tissue uptake at 24 h [2, 7]: 4.53 %ID/g | tissue uptake at 1 h [2, 8]: 4.12 %ID/g | tissue uptake at 4 h [2, 8]: 3.78 %ID/g | tissue uptake at 24 h [2, 8]: 1.66 %ID/g | tissue uptake at 1 h [2, 9]: 0.17 %ID/g | tissue uptake at 4 h [2, 9]: 0.15 %ID/g | tissue uptake at 24 h [2, 9]: 0.06 %ID/g | tissue uptake at 1 h [2, 10]: 0.79 %ID/g | tissue uptake at 4 h [2, 10]: 0.47 %ID/g | tissue uptake at 24 h [2, 10]: 0.13 %ID/g | tissue uptake at 1 h [2, 11]: 0.45 %ID/g | tissue uptake at 4 h [2, 11]: 0.23 %ID/g | tissue uptake at 24 h [2, 11]: 0.09 %ID/g | tissue uptake at 1 h [2, 12]: 0.25 %ID/g | tissue uptake at 4 h [2, 12]: 0.22 %ID/g | tissue uptake at 24 h [2, 12]: 0.14 %ID/g
